From US20260048158A1 (AKTIS ONCOLOGY, published 2026)
Residue numbers refer to the chain shown, from its start. Primed or numbered codes have the meaning given here. The star is where a group is joined. Biotin = O=C1N[C@H]2[C@H](CS[C@H]2CCCCC(=O)*)N1; PEG4′ = not defined here

T1: B7-H3 expressed on the surface of cells (MCF7 cells; B7-H3-expressing cancer cells) (Homo sapiens (Human), UniProt Q5ZPR3 29-534)
T1 construct: Endogenous B7-H3 on MCF7 cells (DELFIA) and on an unnamed cancer cell line (flow cytometry); also called CD276
T1 sequence: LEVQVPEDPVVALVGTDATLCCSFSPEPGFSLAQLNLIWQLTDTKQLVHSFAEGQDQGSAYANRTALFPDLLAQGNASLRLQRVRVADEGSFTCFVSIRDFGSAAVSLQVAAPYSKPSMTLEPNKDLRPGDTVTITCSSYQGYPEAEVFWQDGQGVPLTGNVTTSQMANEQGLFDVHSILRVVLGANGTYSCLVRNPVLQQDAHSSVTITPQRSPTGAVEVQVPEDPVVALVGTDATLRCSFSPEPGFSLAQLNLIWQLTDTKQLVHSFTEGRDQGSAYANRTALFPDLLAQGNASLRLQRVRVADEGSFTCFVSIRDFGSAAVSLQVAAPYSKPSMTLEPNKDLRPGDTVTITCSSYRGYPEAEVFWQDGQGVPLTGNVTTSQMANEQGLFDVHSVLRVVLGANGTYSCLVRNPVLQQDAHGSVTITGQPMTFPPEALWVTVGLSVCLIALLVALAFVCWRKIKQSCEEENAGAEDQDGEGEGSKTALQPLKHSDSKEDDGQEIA

T2: His-tagged B7-H3 protein (ThermoFisher, catalog #B7-H3_NP_001019907) (Homo sapiens (Human), UniProt Q5ZPR3 29-466)
T2 construct: Bought protein immobilised for SPR; also called ligand; target protein; not shown: His tag
T2 sequence: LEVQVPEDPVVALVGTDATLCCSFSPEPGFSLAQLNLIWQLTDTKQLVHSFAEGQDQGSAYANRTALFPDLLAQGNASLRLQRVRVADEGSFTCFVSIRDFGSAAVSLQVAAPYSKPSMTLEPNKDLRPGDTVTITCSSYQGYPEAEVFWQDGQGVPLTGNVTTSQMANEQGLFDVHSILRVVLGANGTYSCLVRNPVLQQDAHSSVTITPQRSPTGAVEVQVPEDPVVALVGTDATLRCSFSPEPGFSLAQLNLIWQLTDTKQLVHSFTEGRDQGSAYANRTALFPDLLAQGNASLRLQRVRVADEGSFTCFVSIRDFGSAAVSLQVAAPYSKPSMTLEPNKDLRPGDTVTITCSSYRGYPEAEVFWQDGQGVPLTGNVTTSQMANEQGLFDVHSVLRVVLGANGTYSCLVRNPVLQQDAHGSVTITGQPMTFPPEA

B1: Compound C234 (designed binder)
chain: CAXEKIAALSEIIWLPCLTYAQIXAFIAALNDDPCQSSEILSEAKELCS
modifications: (Kme3) trimethyllysine at 3; (Kme2) dimethyllysine at 24; N-terminal Biotin-PEG4; C-terminal NH2; two disulfide bridges among Cys1, Cys17, Cys35, Cys48
notes: also called C298
B2: Compound C302 (designed binder)
chain: B1 chain with X3R, S38A, E39N, K45X
modifications: (Kme) monomethyllysine at 24 and 45; N-terminal Biotin-PEG4; C-terminal NH2; two disulfide bridges among Cys1, Cys17, Cys35, Cys48
B3: Compound C304 (designed binder)
chain: B1 chain with K45X
modifications: (Kme3) at 3; (Kme) at 24 and 45; N-terminal Biotin-PEG4; C-terminal NH2; two disulfide bridges among Cys1, Cys17, Cys35, Cys48
B4: Compound C308 (designed binder)
chain: B1 chain with A29X, D32X, K45X
modifications: (Kme3) at 3; (Kme) at 24, 29, 32 and 45; N-terminal Biotin-PEG4; C-terminal NH2; two disulfide bridges among Cys1, Cys17, Cys35, Cys48
B5: Compound C300 (designed binder)
chain: B1 chain with X3R, S38A
modifications: (Kme2) at 24; N-terminal Biotin-PEG4; C-terminal NH2; two disulfide bridges among Cys1, Cys17, Cys35, Cys48
B6: Compound C608 (designed binder)
chain: B1 chain with E11X, Q36N, K45X
modifications: (Kme3) at 3; (E(CO-)) at 11 and (K(NH-)) at 45 joined by a lactam bridge; (Kme) at 24; N-terminal Biotin-PEG4; C-terminal NH2; two disulfide bridges
notes: Three constraints (two disulfide bridges, one lactam bridge)
B7: Compound C318 (designed binder)
chain: B1 chain with A29X, D32X, K45X
modifications: (Kme3) at 3; (Kme2) at 24; (Kme) at 29 and 45; (Cit) citrulline at 32; N-terminal Biotin-PEG4; C-terminal NH2; two disulfide bridges among Cys1, Cys17, Cys35, Cys48
B8: Compound C306 (designed binder)
chain: B1 chain with A28X, K45X
modifications: (Kme3) at 3; (Kme) at 24, 28 and 45; N-terminal Biotin-PEG4; C-terminal NH2; two disulfide bridges among Cys1, Cys17, Cys35, Cys48
B9: Compound C316 (designed binder)
chain: B1 chain with A29R, S38A, K45X
modifications: (Rme) methylated arginine at 3; (Kme) at 24 and 45; N-terminal Biotin-PEG4; C-terminal NH2; two disulfide bridges among Cys1, Cys17, Cys35, Cys48
B10: Compound C312 (designed binder)
chain: B1 chain with Q36N, K45X
modifications: (Kme3) at 3; (Kme) at 24 and 45; N-terminal Biotin-PEG4; C-terminal NH2; two disulfide bridges among Cys1, Cys17, Cys35, Cys48
B11: Compound C310 (designed binder)
chain: B1 chain with T19N, K45X
modifications: (Kme3) at 3; (Kme) at 24 and 45; N-terminal Biotin-PEG4; C-terminal NH2; two disulfide bridges among Cys1, Cys17, Cys35, Cys48
B12: Compound C245 (designed binder)
chain: CAKEKIAALSEIIWLPCLTYAQIXAFIAALNDDPCQSSELLSEAKELNDSQCP
modifications: (homo-leucine) at 24; N-terminal Biotin-PEG4; C-terminal NH2; disulfide bridges between cysteine pairs (Cys1-Cys35 and Cys17-Cys52 named for SEQ ID NO: 213)
B13: Compound C255 (designed binder)
chain: B12 chain
modifications: (Kme3) at 24; N-terminal Biotin-PEG4; C-terminal NH2; disulfide bridges between cysteine pairs
B14: Compound C253 (designed binder)
chain: B12 chain
modifications: (Kme2) at 24; N-terminal Biotin-PEG4; C-terminal NH2; disulfide bridges between cysteine pairs

Each binder was assayed against T1, B7-H3 expressed on the surface of cells … (assay: DELFIA competition on live MCF7 cells expressing B7-H3; fixed tracer: europium-chelate miniprotein).
Method: (§1) Equilibrium binding affinity (KD) was determined using SPR (as in Example 2) or a live cell binding assay (DELFIA) on MCF7 cells that express B7-H3. Binding inhibition constant (Kᵢ) of miniprotein ligands was also determined using MCF7 cells expressing a B7-H3. Cells were dispensed into a 384-well plate and incubated at 37° C. in 5% CO₂ overnight.
(§2) The plate was incubated for 1.5 h at room temperature to reach equilibrium. Cells were then washed to remove unbound ligand and treated according to manufacturer instructions for a DELFIA® (dissociation-enhanced lanthanide fluorescent immunoassay, Revvity Health Sciences). In brief, 2 M HCl was added to each well and incubated for 2 h at 37° C. Following this step, 2 M NaOH and fluorescent inducer solution were added to each well and incubated for 30 minutes at room temperature. Plates were read on an Envision plate reader and a curve-fitting model was applied to estimate KD and Kᵢ values.

B1 and B2 are within 1.5-fold of each other in Ki: 1.72 nM for the first, 1.34 nM for the second.

Compared with B3, B4 is 2.6-fold lower in Ki: 2.24 nM for the first, 0.872 nM for the second.

Going from B5 to B6, the Ki rises from 1.91 nM to 3.58 nM (1.9-fold). The first binds more tightly here.

B7 and B8 are the same in Ki: 1.24 nM for the first, 1.24 nM for the second.

B9 and B10 are within 1.5-fold of each other in Ki: 0.873 nM for the first, 1.01 nM for the second.

B11 gave a Ki of 0.886 nM.

Each binder was assayed against T1, B7-H3 expressed on the surface of cells … (assay: DELFIA competition on cells expressing B7-H3 (as in Example 14); competitor: europium-chelate miniprotein tracer).

Going from B12 to B13, the Ki rises from 2.8 nM to 8.75 nM (3.1-fold).

First: B14
Second: CAREKIAALSEIIWLPCLTYAQIXAFIAALNDDPCQSSEILSEAKELCS (designed binder, (Kme2) at 24; N-terminal Biotin-PEG4; C-terminal NH2; two disulfide bridges) [Compound C275]
The Ki of the first is 3.8-fold higher: 5.36 nM for the first, 1.42 nM for the second. The second binds more tightly here.

Compared with {Biotin-PEG4′}-CAREKIAALSEIIWLPCLTYAQIQAFIAALNDDPCQSSEILSEAKELCS-NH2 (designed binder, disulfide (positions not given here)) [Compound C290], {Biotin-PEG4′}-CAREKIAALSEIIWLPCLTYAQIKAFIAALNDDPCQSSEILSEAKELCS-NH2 (designed binder, disulfide (positions not given here)) [Compound C284] is 6.8-fold lower in Ki: 13.8 nM for the first, 2.02 nM for the second. The second binds more tightly here.

Going from {Biotin-PEG4′}-CAREKIAALSEIIWLPCLTYAQILAFIAALNDDPCQSSEILSEAKELCS-NH2 (designed binder, disulfide (positions not given here)) [Compound C286] to {Biotin-PEG4′}-CAREKIAALSEIIWLPCLTYAQIVAFIAALNDDPCQSSEILSEAKELCS-NH2 (designed binder, disulfide (positions not given here)) [Compound C291], the Ki falls from 23.9 nM to 7.7 nM (3.1-fold). The second binds more tightly here.

These binders were tested against T1, B7-H3 expressed on the surface of cells … (assay: DELFIA on-cell competition assay on MCF7 cells (FIG. 15); single experiment of FIG. 15).
Method: as §1, §2

B1 gave a Ki of about 1.36 nM.

The binders below were run against T2, His-tagged B7-H3 protein (ThermoFisher, …) (assay: SPR (as in Example 2)).
Method: Surface plasmon resonance (SPR) analyses were performed using Biacore T200 (GE Healthcare). His-tagged B7-H3 protein (ThermoFisher, catalog #B7-H3_NP_001019907), (“ligand”) was immobilized to a Series S NTA chip (Cytiva #28994951). Running buffer was 0.05% Surfactant P20 in HEPES buffered saline (HBS-P), pH 7.4 (Cytiva). Immobilization was performed at 25° C. […] Pulsatile injections were made to target a specific immobilization level. […] Increase in signal (RU) is proportional to an increase in binding events between the analyte and ligand surface. Then injection was then stopped, and dissociation was measured. The resulting sensorgram is reference surface and blank injection subtracted prior to curve fitting. […] KD was calculated using a 1:1 binding model at 25° C.
as §1

Compared with B1, B2 is 2.4-fold lower in Kd: 1.36 nM for the first, 0.558 nM for the second. The second binds more tightly here.

First: B3
Second: B4
The Kd of the first is 3-fold higher: 1.43 nM for the first, 0.482 nM for the second.

Going from B5 to B7, the Kd rises from 0.506 nM to 1.24 nM (2.5-fold). The first binds more tightly here.

B8 and B9 are within 1.5-fold of each other in Kd: 0.761 nM for the first, 0.621 nM for the second.

First: B10
Second: B11
The Kd of the first is 1.6-fold lower: 0.485 nM for the first, 0.782 nM for the second.

What follows are binders tested against T1, B7-H3 expressed on the surface of cells … (assay: DELFIA competition assay on live MCF7 cells expressing B7-H3; the unlabeled competing ligand is varied against a fixed concentration of the europium-chelate miniprotein tracer).
Method: as §1, §2

In the case of B1, the “IC50 (read off the curve)” value is reported as about 3 nM.
